According to patent US20240218079A1, “PLASMA KALLIKREIN ANTIBODIES AND USES THEREOF” (Astria Therapeutics, Inc., priority 2021, published 2024):

Assays:
[1] = target: human plasma kallikrein (human) (UniProt P03952)
[2] = target: human plasma kallikrein (human) (UniProt P03952); remark: listed apart in the source

human plasma kallikrein (human), sequence (P03952 20-390 S143N limits assumed, chain 1 of 2): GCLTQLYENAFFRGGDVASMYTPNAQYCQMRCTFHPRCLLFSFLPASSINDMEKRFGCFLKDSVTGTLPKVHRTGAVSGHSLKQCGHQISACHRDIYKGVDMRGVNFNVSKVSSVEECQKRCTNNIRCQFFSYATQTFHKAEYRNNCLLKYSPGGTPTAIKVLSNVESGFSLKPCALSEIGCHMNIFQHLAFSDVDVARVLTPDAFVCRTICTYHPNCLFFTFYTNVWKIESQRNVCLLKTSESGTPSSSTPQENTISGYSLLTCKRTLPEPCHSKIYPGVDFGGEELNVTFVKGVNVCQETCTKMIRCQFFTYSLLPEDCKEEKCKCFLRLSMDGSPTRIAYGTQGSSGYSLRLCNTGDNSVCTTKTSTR
human plasma kallikrein (human), sequence (P03952 391-638 limits assumed, chain 2 of 2): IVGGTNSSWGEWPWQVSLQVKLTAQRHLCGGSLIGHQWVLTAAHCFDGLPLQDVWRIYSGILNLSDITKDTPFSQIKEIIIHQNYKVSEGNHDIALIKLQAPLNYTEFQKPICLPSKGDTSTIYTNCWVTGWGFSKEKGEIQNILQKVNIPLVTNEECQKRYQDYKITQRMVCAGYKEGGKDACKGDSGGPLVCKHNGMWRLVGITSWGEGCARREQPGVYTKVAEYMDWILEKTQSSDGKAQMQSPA

IC50 (read off the curve) [1]: 3 nM
IC50 (read off the curve), lower panel, 10 nM pKal [2]: 1e-08 M
IC50 (read off the curve), upper panel, 1 nM pKal [2]: 4e-09 M
B1: C1inh (protein, UniProt P05155 23-500, looked up, species assumed)
Plasma protease C1 inhibitor: NPNATSSSSQDPESLQDRGEGKVATTVISKMLFVEPILEVSSLPTTNSTTNSATKITANTTDEPTTQPTTEPTTQPTIQPTQPTTQLPTDSPTQPTTGSFCPGPVTLCSDLESHSTEAVLGDALVDFSLKLYHAFSAMKKVETNMAFSPFSIASLLTQVLLGAGENTKTNLESILSYPKDFTCVHQALKGFTTKGVTSVSQIFHSPDLAIRDTFVNASRTLYSSSPRVLSNNSDANLELINTWVAKNTNNKISRLLDSLPSDTRLVLLNAIYLSAKWKTTFDPKKTRMEPFHFKNSVIKVPMMNSKKYPVAHFIDQTLKAKVGQLQLSHNLSLVILVPQNLKHRLEDMEQALSPSVFKAIMEKLEMSKFQPTLLTLPRIKVTTSQDMLSIMEKLEFFDFSYDLNLCGLTEDPDLQVSAMQHQTVLELTETGVEAAAASAISVARTLLVFEVQQPFLFVLWDQQHKFPVFMGRVYDPRA
